Results: PMC2726290, “Decoding of Methylated Histone H3 Tail by the Pygo-BCL9 Wnt Signaling Complex” (Molecular Cell, 2008)
Numbering of substitutions follows the chain as printed. Names may count otherwise.

B1: WT Pygo: overexpressed wild-type HA-tagged Drosophila Pygo (protein, UniProt Q9V9W8 1-815, looked up)
Protein pygopus: MTHNLGMAPYRLPGPAGGLCPPDFKPPPPTDIISAPSNPKKRRKTSSAANSAAAVAAAAAAAAAANSMQQQQAPPTPQDLLPPPPMGGFGDTIIASNPFDDSPQVSAMSSSAAAAMAAMNQMGGGPGGGHFGGGGPGGHPHWEDRMGMGGGPPPPPHMHPHMHPHHPGGPMGHPHGPHPHMGGPPPMRGMSPMHPHQMGPGPGVGLPPHMNHGRPGGPGGPGGPVPMGSPMGGIAGMGGMSPMGGMGGPSISPHHMGMGGLSPMGGGPNGPNPRAMQGSPMGGPGQNSPMNSLPMGSPMGNPIGSPLGPPSGPGPGNPGNTGGPQQQQQQPPQPPMNNGQMGPPPLHSPLGNGPTGHGSHMPGGPIPGPGPGPGGLVGPGGISPAHGNNPGGSGNNMLGGNPGGGNSNNNGSNTSNASNNNQNPHLSPAAGRLGVPTSMQSNGPSVSSVASSSVPSPATPTLTPTSTATSMSTSVPTSSPAPPAMSPHHSLNSAGPSPGMPNSGPSPLQSPAGPNGPNNNNSNNNNGPMMGQMIPNAVPMQHQQHMGGGPPGHGPGPMPGMGMNQMLPPQQPSHLGPPHPNMMNHPHHPHHHPGGPPPHMMGGPGMHGGPAGMPPHMGGGPNPHMMGGPHGNAGPHMGHGHMGGVPGPGPGPGGMNGPPHPHMSPHHGHPHHHHNPMGGPGPNMFGGGGGGPMGPGGPMGNMGPMGGGPMGGPMGVGPKPMTMGGGKMYPPGQPMVFNPQNPNAPPIYPCGMCHKEVNDNDEAVFCESGCNFFFHRTCVGLTEAAFQMLNKEVFAEWCCDKCVSSKHIPMVKFKC
modifications: HA tag
B2: Pygo-V757E: HA-tagged Drosophila Pygo with point mutation in V757 (in EVND) (protein, UniProt Q9V9W8 1-815, looked up, variant V757E)
Protein pygopus: B1 Protein pygopus with V757E
modifications: HA tag

Test system: pygo null mutant clones in wing discs
Assay: Rescue assays in Drosophila pygo null mutant clones
Type: in vivo
Conditions: for rescue of pygo mutant phenotypes (notches and bristle defects): anterior wing margin of adult flies bearing pygo mutant clones, overexpression; for rescue of senseless expression: overexpression by GAL4 system in pygo null mutant wing disc clones, third instar larvae
From the text: To test whether the binding of Pygo to H3K4me is important for its function in vivo, we conducted rescue assays in Drosophila ([de la Roche and Bienz, 2007]). We introduced a point mutation into V757 (in EVND) of Drosophila Pygo, which corresponds to V350 of hPHD that lines its K4me pocket (Figure 4B) and whose mutation drastically reduces its binding to H3K4me3 (Figure 4E). We then generated pygo null mutant clones in wing discs, one of the best-characterized Wingless-responsive tissues whose development depends on Pygo function ([Belenkaya et al., 2002; de la Roche and Bienz, 2007; Kramps et al., 2002; Parker et al., 2002; Thompson et al., 2002]), and we used the GAL4 system to overexpress the Pygo-V757E mutant in these clones, to test its rescue activity in this tissue.
HA-tagged Pygo-V757E was constructed in pUAST, and multiple independent transformant lines were isolated, as described previously for WT HA-Pygo ([Townsley et al., 2004b]). Two different lines were each tested for rescue activity of pygo null mutant clones in the wing disc, as described ([de la Roche and Bienz, 2007]).

Molecule | rescue of pygo mutant phenotypes (notches and bristle defects) | rescue of senseless expression
B1 | rescued all pygo mutant phenotypes | restored expression of senseless
B2 | WT Pygo but not Pygo-V757E rescued all pygo mutant phenotypes | no rescue whatsoever was observed
